Assay results from US20260274955A1 (JANUX THERAPEUTICS, published 2026).
Where two headings read alike, the source gives them in different places. No end group written: not given here.

T1: Peptide-72 (cysteine pairing not given here; also: biotinylated, site not given here)
T1 construct: optimization library of Peptide-39
T1 peptide: YCEGHLPEYIEKCL

T2: Peptide-73 (cysteine pairing not given here; also: biotinylated, site not given here)
T2 construct: optimization library of Peptide-39
T2 peptide: YCEGHAPEYIAKCL

T3: Peptide-78 (cysteine pairing not given here; also: biotinylated, site not given here)
T3 construct: optimization library of Peptide-39
T3 peptide: YCEGHLPEYREKCL

T4: Peptide-79 (cysteine pairing not given here; also: biotinylated, site not given here)
T4 construct: optimization library of Peptide-39
T4 peptide: YCEGHLPEYLAKCL

T5: Peptide-84 (cysteine pairing not given here; also: biotinylated, site not given here)
T5 construct: optimization library of Peptide-39
T5 peptide: YCEGHLPEYRNKCL

T6: Peptide-86 (cysteine pairing not given here; also: biotinylated, site not given here)
T6 construct: optimization library of Peptide-39
T6 peptide: YCEGHLPEYIQKCL

B1: Phage-938 (peptide)
peptide: TCAAGAHWPWPTCF
B2: Peptide-24 (peptide)
peptide: IDWCPLHLWHECYH
modifications: cysteine pairing not given here; also: biotinylated, site not given here
B3: Peptide-39 (peptide)
peptide: YCAGHAWQYINKCL
modifications: cysteine pairing not given here; also: biotinylated, site not given here
B4: Peptide-26 (peptide)
peptide: IYWCPIDRWNDCYN
modifications: cysteine pairing not given here; also: biotinylated, site not given here
B5: Phage-940 (peptide)
peptide: LCNAGATYSWPTCL
B6: Peptide-39 (peptide)
peptide: YCAGHAWQYINKCL
modifications: cysteine pairing not given here; also: biotinylated, site not given here
notes: synthetic peptide
B7: Peptide-66 (peptide)
peptide: YCAGHAWQYIAKCL
notes: alanine scanning peptide of Peptide-39 (N11A)
B8: Peptide-63 (peptide)
peptide: YCAGHAWAYINKCL
notes: alanine scanning peptide of Peptide-39 (Q8A)
B9: Peptide-62 (peptide)
peptide: YCAGHAAQYINKCL
notes: alanine scanning peptide of Peptide-39 (W7A)
B10: Peptide-68 (peptide)
peptide: YCAGHAWQYINKCA
notes: alanine scanning peptide of Peptide-39 (L14A)
B11: Peptide-65 (peptide)
peptide: YCAGHAWQYANKCL
notes: alanine scanning peptide of Peptide-39 (I10A)
B12: Peptide-22 (peptide)
peptide: LDWCPRHLWALCFN
modifications: cysteine pairing not given here; also: biotinylated, site not given here
B13: Peptide-3 (peptide)
peptide: RDWCPRDLWVHCFA
modifications: cysteine pairing not given here; also: biotinylated, site not given here
B14: Peptide-16 (peptide)
peptide: TDWCPRDLWVHCFA
modifications: cysteine pairing not given here; also: biotinylated, site not given here
B15: Peptide-7 (peptide)
peptide: EDWCPRDLWVHCFA
modifications: cysteine pairing not given here; also: biotinylated, site not given here
B16: Peptide-6 (peptide)
peptide: QDWCPRDLWVHCFA
modifications: cysteine pairing not given here; also: biotinylated, site not given here
B17: Peptide-12 (peptide)
peptide: KDWCPRDLWVHCFA
modifications: cysteine pairing not given here; also: biotinylated, site not given here
B18: Peptide-36 (peptide)
peptide: YCAGHSPINIGKCL
modifications: cysteine pairing not given here; also: biotinylated, site not given here
B19: anti-CD28 Fab (Fab, V domains shown)
VH: QVQLVQSGAEVKKPGASVKVSCKASGYTFTSYYIHWVRQAPGQGLEWIGSIYPGNVNTNYNEKFKDRATLTVDTSISTAYMELSRLRSDDTAVYFCTRSHYGLDWNFDVWGQGTTVTVSS
VL: not shown
B20: Phage-937 (peptide)
peptide: LCAAGAHYPWPQCL
B21: Peptide-44 (peptide)
peptide: SCAAGASYAWPYCL
modifications: cysteine pairing not given here; also: biotinylated, site not given here
B22: Phage-935 (peptide)
peptide: SCAAGAMYSWPTCL
B23: Peptide-31 (peptide)
peptide: ACDTYFAGMINECF
modifications: cysteine pairing not given here; also: biotinylated, site not given here
B24: Peptide-25 (peptide)
peptide: VPWCQIISGLECLT
modifications: cysteine pairing not given here; also: biotinylated, site not given here
B25: Peptide-44 (peptide)
peptide: SCAAGASYAWPYCL
modifications: cysteine pairing not given here; also: biotinylated, site not given here
notes: synthetic peptide
B26: Peptide-58 (peptide)
peptide: SCAAGASYAWPYCA
B27: Peptide-53 (peptide)
peptide: SCAAGAAYAWPYCL
B28: Peptide-51 (peptide)
peptide: ACAAGASYAWPYCL
B29: Peptide-57 (peptide)
peptide: SCAAGASYAWPACL
B30: Phage-936 (peptide)
peptide: NCSAGAQWPWPICL

Legend:
[1] = target: T7, anti-CD28 Fab (SEQ ID NOs: 202, 203); assay: phage binding ELISA on captured biotinylated Fab;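 further: clonal phage supernatants added to wells preincubated with CD28 antigen or blocking buffer only, bound phage detected by ELISA with horseradish-conjugated anti-M13 antibody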
T7 construct: biotinylated and captured on neutravidin coated plates in the phage ELISA

[2] = target: T7, anti-CD28 Fab (SEQ ID NOs: 202, 203); assay: phage binding ELISA on captured Fab, competitor CD28 antigen
[3] = target: T8, Ab-1; assay: BLI (Octet), 200 nM peptide, 100 nM Ab-1;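 on t1/2: association and dissociation phases tracked in real time, with kinetics fitted to a 1:1 interaction model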
T8 construct: also called anti-CD28 scFv harbored in Ab-1

[4] = target: T8, Ab-1; assay: binding ELISA, peptide captured, Ab-1 titrated
[5] = target: T8, Ab-1; assay: competition ELISA, peptide titrated vs 1 nM Ab-1 binding plate-bound CD28
[6] = target: T9, anti-CD28 Fab (SEQ ID NOs: 202, 203); assay: binding ELISA, peptide captured, anti-CD28 Fab titrated
T9 construct: biotinylated when captured in the phage ELISAs

[7] = target: B19; assay: competition ELISA, alanine scan of Peptide-39, Fab binding plate-bound CD28
[8] = target: T8, Ab-1; assay: BLI (Octet), 200 nM peptide, 100 nM Ab-1; remark: listed apart in the source;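 on t1/2: association and dissociation phases tracked in real time, with kinetics fitted to a 1:1 interaction model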
[9] = target: T8, Ab-1; assay: binding ELISA, peptide captured, Ab-1 titrated; remark: listed apart in the source
[10] = target: T8, Ab-1; assay: BLI (Octet), peptide on sensor, Ab-1 titrated, 1:1 model
[11] = target: T8, Ab-1; assay: competition ELISA, peptide titrated vs 1 nM Ab-1 binding plate-bound CD28; remark: listed apart in the source
[12] = target: B6; assay: BLI, peptide on sensor, Fab in solution, 1:1 model
[13] = target: T1, Peptide-72; assay: BLI, peptide on sensor, Fab in solution, 1:1 model
[14] = target: T2, Peptide-73; assay: BLI, peptide on sensor, Fab in solution, 1:1 model
[15] = target: T3, Peptide-78; assay: BLI, peptide on sensor, Fab in solution, 1:1 model
[16] = target: T4, Peptide-79; assay: BLI, peptide on sensor, Fab in solution, 1:1 model
[17] = target: T5, Peptide-84; assay: BLI, peptide on sensor, Fab in solution, 1:1 model
[18] = target: T6, Peptide-86; assay: BLI, peptide on sensor, Fab in solution, 1:1 model
[19] = target: T9, anti-CD28 Fab (SEQ ID NOs: 202, 203); assay: binding ELISA, peptide captured, anti-CD28 Fab titrated; remark: listed apart in the source
[20] = target: B19; assay: competition ELISA, alanine scan of Peptide-44, Fab binding plate-bound CD28

B1 was tested, and the “Anti-CD28 Fab (SEQ ID NOs: 202, 203) signal” value [1] was 2.15 and the “Anti-CD28 Fab signal in the presence of CD28” value (shortened to “Anti-CD28 Fab signal”) [2] was 0.07.

B2 was tested, and the “Octet signal (200 nM peptide)” value [3] was 0.838, the EC50 [4] was 0.0133 µM and the IC50 [5] was 1.52 µM.

Binder B3 has an EC50 [6] of 0.049 µM.

B4 was tested, and the “Octet signal (200 nM peptide)” value [3] was 0.705, the EC50 [4] was 0.0076 µM and the IC50 [5] was 0.41 µM.

B5 was tested, and the “Anti-CD28 Fab (SEQ ID NOs: 202, 203) signal” value [1] was 2.14 and the “Anti-CD28 Fab signal” value [2] was 0.06.

Work on B6 yielded an IC50 [7] of 12600 µM.

With B7 the IC50 [7] was 5490 µM.

Binder B8 has an IC50 [7] of 12300 µM.

B9 showed an IC50 [7] of 3160 µM.

For B10, the IC50 [7] was 98600 µM.

B11 was tested, and the IC50 [7] was 102000 µM.

In the case of B12, the “Octet signal (200 nM peptide)” value [3] is reported as 0.697, the EC50 [4] is reported as 0.0082 µM and the IC50 [5] is reported as 0.47 µM.

With B13 the Octet signal [8] was 1.22, the t1/2 [8] was 4.9 min and the EC50 [9] was 0.0146 µM. The Kd [10] was 0.0203 µM, the t1/2 [10] was 6.2 min and the IC50 [11] was 0.17 µM.

In the case of B14, the Octet signal [8] is reported as 1.34, the t1/2 [8] is reported as 4.2 min and the EC50 [9] is reported as 0.024 µM. It also gave a Kd [10] of 0.0255 µM, a t1/2 [10] of 4.7 min and an IC50 [11] of 0.59 µM.

B15 was tested, and the Octet signal [8] was 1.02, the t1/2 [8] was 3 min and the EC50 [9] was 0.0328 µM. The Kd [10] was 0.0232 µM, the t1/2 [10] was 3.1 min and the IC50 [11] was 0.3 µM.

With B16 the Octet signal [8] was 1.12, the t1/2 [8] was 3.6 min and the EC50 [9] was 0.0257 µM. For the same binder, the Kd [10] was 0.0246 µM, the t1/2 [10] was 4.2 min and the IC50 [11] was 0.33 µM.

Work on B17 yielded an Octet signal [8] of 1.13, a t1/2 [8] of 4 min and an EC50 [9] of 0.0197 µM. It also gave a Kd [10] of 0.0261 µM, a t1/2 [10] of 4.5 min and an IC50 [11] of 0.19 µM.

B18 gave an EC50 [6] of 0.337 µM.

B19 was tested, and the Kd [12] was 2.02 µM, the koff [12] was 0.0202 s⁻¹ and the kon [12] was 10000 M⁻¹ s⁻¹. The “t½” value [12] was 0.6 min, the Kd [13] was 0.926 µM and the koff [13] was 0.0239 s⁻¹. For the same binder, the kon [13] was 25800 M⁻¹ s⁻¹, the “t½” value [13] was 0.5 min and the Kd [14] was 0.831 µM. For the same binder, the koff [14] was 0.028 s⁻¹, the kon [14] was 33700 M⁻¹ s⁻¹ and the “t½” value [14] was 0.4 min. For the same binder, the Kd [15] was 0.141 µM, the koff [15] was 0.0191 s⁻¹ and the kon [15] was 135000 M⁻¹ s⁻¹. The “t½” value [15] was 0.6 min, the Kd [16] was 0.0447 µM and the koff [16] was 0.0118 s⁻¹. The kon [16] was 264000 M⁻¹ s⁻¹, the “t½” value [16] was 1 min and the Kd [17] was 0.11 µM. For the same binder, the koff [17] was 0.0138 s⁻¹, the kon [17] was 125000 M⁻¹ s⁻¹ and the “t½” value [17] was 0.8 min. The Kd [18] was 0.0402 µM, the koff [18] was 0.0115 s⁻¹ and the kon [18] was 286000 M⁻¹ s⁻¹. The “t½” value [18] was 1 min.

With B20 the “Anti-CD28 Fab (SEQ ID NOs: 202, 203) signal” value [1] was 2.15 and the “Anti-CD28 Fab signal” value [2] was 0.07.

Work on B21 yielded an EC50 [6] of 0.054 µM and an EC50 [19] of 0.0189 µM.

B22 was tested, and the “Anti-CD28 Fab (SEQ ID NOs: 202, 203) signal” value [1] was 2.16 and the “Anti-CD28 Fab signal” value [2] was 0.08.

B23 was tested, and the EC50 [6] was 0.097 µM.

In the case of B24, the “Octet signal (200 nM peptide)” value [3] is reported as 0.166, the EC50 [4] is reported as 0.0549 µM and the IC50 [5] is reported as greater than 100 µM.

B25 gave an IC50 [20] of 7890 µM.

B26 gave an IC50 [20] of 76400 µM.

B27 showed an IC50 [20] of 7420 µM.

In the case of B28, the IC50 [20] is reported as 21000 µM.

In the case of B29, the IC50 [20] is reported as 13000 µM.

B30 was tested, and the “Anti-CD28 Fab (SEQ ID NOs: 202, 203) signal” value [1] was 2.15 and the “Anti-CD28 Fab signal” value [2] was 0.08.
